This test addresses ubp18_human USP18 (UniProt Q9UMW8).

Experimental findings from IntAct's records for PubMed 36753016 are described below.

Chain of ubp18_human USP18 (Q9UMW8 whole entry): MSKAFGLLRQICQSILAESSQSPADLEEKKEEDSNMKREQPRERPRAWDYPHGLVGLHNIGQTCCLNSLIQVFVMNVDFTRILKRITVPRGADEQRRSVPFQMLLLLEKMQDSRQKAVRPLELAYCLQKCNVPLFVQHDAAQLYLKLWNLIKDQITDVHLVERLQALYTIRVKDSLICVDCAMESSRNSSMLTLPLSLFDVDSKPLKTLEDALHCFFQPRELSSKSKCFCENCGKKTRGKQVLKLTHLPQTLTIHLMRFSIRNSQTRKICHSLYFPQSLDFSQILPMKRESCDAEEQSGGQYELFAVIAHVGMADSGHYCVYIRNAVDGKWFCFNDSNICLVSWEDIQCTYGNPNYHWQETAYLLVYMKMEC

Turning to “Signal transducer and activator of transcription 2 (Homo sapiens), P52630 A219V”, the “effect of a mutation on the interaction” value was “decreasing interaction strength”.
